What was measured:
Test in all cases: holdup assay
Parameters in all cases: key: below the threshold = too weak to quantify, mostly under pKd 3.1 to 4
Inadl_10, Q8NI35 = target: Inadl_10, Q8NI35
DFNB31_1, Q9P202 = target: T1, DFNB31_1, Q9P202
T1 sequence (Q9P202 135-233, limits assumed, looked up): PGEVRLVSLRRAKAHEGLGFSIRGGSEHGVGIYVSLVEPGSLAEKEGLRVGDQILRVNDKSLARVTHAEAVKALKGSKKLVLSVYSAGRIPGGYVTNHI

DLG1_1, Q12959 = target: DLG1_1, Q12959
PCLO, Q9Y6V0 = target: T2, PCLO, Q9Y6V0
T2 sequence (Q9Y6V0 4491-4600, limits assumed, looked up): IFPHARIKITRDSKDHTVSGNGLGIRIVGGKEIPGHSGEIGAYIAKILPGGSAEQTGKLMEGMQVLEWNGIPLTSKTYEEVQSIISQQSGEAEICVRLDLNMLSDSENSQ

HTRA3, P83110 = target: T3, HTRA3, P83110
T3 sequence (P83110 354-453, limits assumed, looked up): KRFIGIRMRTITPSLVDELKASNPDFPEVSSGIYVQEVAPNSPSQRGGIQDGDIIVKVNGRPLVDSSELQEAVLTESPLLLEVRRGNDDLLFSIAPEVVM

GRIP1_3, Q9Y3R0 = target: T4, GRIP1_3, Q9Y3R0
T4 sequence (Q9Y3R0 247-346, limits assumed, looked up): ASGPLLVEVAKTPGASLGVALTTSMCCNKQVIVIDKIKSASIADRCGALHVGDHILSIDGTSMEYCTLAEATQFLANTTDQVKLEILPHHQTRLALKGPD

PICK1, Q9NRD5 = target: PICK1, Q9NRD5
PDZRN4_1, Q6ZMN7 = target: PDZRN4_1, Q6ZMN7
NHERF4_1, Q86UT5-2 = target: NHERF4_1, Q86UT5-2
Inadl_1, Q8NI35 = target: Inadl_1, Q8NI35
PDZD2_2, O15018 = target: T5, PDZD2_2, O15018
T5 sequence (O15018 329-429, limits assumed, looked up): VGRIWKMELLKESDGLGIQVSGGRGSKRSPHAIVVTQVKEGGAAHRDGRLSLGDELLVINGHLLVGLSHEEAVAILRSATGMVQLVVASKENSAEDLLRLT

Inadl_5, Q8NI35 = target: Inadl_5, Q8NI35
GRIP1_7, Q9Y3R0 = target: T6, GRIP1_7, Q9Y3R0
T6 sequence (Q9Y3R0 999-1096, limits assumed, looked up): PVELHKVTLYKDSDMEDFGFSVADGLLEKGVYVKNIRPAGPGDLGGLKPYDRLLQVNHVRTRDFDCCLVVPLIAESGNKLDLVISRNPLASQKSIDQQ

DLG3_2, Q92796 = target: T7, DLG3_2, Q92796
T7 sequence (Q92796 221-321, limits assumed, looked up): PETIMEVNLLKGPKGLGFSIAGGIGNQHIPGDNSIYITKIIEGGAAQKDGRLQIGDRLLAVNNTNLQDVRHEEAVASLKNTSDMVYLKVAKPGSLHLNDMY

GRIP1_4, Q9Y3R0 = target: T8, GRIP1_4, Q9Y3R0
T8 sequence (Q9Y3R0 467-571, limits assumed, looked up): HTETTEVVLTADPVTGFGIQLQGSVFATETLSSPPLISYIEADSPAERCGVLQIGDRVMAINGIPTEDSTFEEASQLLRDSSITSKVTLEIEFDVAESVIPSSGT

APBA2_1, Q99767 = target: T9, APBA2_1, Q99767
T9 sequence (Q99767 563-664, limits assumed, looked up): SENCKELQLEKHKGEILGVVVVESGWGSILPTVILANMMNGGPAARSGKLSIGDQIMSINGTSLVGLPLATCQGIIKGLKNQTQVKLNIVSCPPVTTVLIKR

DLG2_3, Q15700 = target: DLG2_3, Q15700
LIN7B, Q9HAP6 = target: T10, LIN7B, Q9HAP6
T10 sequence (Q9HAP6 88-185, limits assumed, looked up): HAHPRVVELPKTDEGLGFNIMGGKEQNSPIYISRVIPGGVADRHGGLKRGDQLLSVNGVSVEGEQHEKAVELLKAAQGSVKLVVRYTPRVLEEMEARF

AHNAK1, Q09666 = target: AHNAK1, Q09666
MPP7, Q5T2T1 = target: T11, MPP7, Q5T2T1
T11 sequence (Q5T2T1 134-230, limits assumed, looked up): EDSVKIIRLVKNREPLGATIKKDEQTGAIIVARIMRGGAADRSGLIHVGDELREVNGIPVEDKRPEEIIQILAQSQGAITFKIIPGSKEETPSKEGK

GORASP1, Q9BQQ3 = target: GORASP1, Q9BQQ3
DLG1_2, Q12959 = target: DLG1_2, Q12959
SNTB1, Q13884 = target: T12, SNTB1, Q13884
T12 sequence (Q13884 107-205, limits assumed, looked up): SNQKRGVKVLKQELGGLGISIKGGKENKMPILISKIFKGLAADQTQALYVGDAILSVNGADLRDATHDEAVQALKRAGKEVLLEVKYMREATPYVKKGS

LNX1_3, Q8TBB1 = target: LNX1_3, Q8TBB1
SCRIB_3, Q14160 = target: SCRIB_3, Q14160
Inadl_9, Q8NI35 = target: Inadl_9, Q8NI35
[1] = plain residues with an end cap or a label only (N-terminal biotin on a linker: ttds)
[2] = plain residues with an end cap or a label only (N-terminal biotin on a linker: ahx)
[3] = plain residues with an end cap or a label only (N-terminal biotin on a linker: ado-ado)

Chain of PDZRN4_1, Q6ZMN7 (Q6ZMN7 213-318): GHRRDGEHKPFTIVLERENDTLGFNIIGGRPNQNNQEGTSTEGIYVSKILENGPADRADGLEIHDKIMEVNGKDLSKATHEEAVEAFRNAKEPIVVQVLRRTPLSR
Chain of Inadl_10, Q8NI35 (Q8NI35 1673-1763): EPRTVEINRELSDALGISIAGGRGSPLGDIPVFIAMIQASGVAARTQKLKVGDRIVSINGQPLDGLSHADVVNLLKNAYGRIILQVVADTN
Chain of Inadl_9, Q8NI35 (Q8NI35 1530-1615): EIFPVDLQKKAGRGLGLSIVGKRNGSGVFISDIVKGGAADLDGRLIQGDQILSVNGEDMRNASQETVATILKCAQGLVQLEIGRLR
Chain of Inadl_5, Q8NI35 (Q8NI35 673-780): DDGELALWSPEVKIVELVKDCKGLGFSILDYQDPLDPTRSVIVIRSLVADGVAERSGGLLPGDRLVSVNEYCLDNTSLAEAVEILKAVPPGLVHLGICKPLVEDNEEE
Chain of LNX1_3, Q8TBB1 (Q8TBB1 500-596): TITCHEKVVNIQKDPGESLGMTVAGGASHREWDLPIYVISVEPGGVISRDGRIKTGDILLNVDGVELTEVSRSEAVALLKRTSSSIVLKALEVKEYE
Chain of AHNAK1, Q09666 (Q09666 4-100): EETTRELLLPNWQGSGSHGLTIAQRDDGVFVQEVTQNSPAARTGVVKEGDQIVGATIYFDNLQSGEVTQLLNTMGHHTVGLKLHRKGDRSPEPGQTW
Chain of GORASP1, Q9BQQ3 (Q9BQQ3 1-208): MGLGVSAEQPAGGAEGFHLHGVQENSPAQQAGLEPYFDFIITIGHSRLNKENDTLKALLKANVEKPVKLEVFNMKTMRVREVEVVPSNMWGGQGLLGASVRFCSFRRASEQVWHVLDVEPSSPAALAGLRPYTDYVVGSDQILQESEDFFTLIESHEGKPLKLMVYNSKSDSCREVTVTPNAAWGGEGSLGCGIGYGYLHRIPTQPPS
Chain of SCRIB_3, Q14160 (Q14160 999-1103): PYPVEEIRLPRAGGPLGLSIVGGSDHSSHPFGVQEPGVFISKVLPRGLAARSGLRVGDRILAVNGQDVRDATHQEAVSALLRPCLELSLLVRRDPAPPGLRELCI
Chain of NHERF4_1, Q86UT5-2 (Q86UT5 other isoform, or with tags, fused parts or gaps): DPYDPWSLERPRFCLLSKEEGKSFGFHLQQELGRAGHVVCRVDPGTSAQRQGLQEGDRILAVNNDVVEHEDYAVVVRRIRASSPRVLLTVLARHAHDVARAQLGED
Chain of PICK1, Q9NRD5 (Q9NRD5 17-115): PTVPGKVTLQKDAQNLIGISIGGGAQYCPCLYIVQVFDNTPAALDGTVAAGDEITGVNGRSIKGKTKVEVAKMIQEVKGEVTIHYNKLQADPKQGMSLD
Chain of Inadl_1, Q8NI35 (Q8NI35 113-229): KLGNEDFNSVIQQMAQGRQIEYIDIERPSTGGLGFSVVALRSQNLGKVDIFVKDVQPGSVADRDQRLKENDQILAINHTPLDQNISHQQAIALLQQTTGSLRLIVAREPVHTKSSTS

NQLAWFDTDL [CTNNB1, P35222]
pKd (Inadl_10, Q8NI35; [1]): below the threshold
pKd (DFNB31_1, Q9P202; [1]): 4.28
pKd (DLG1_1, Q12959; [1]): below the threshold
pKd (PCLO, Q9Y6V0; [1]): below the threshold
pKd (HTRA3, P83110; [1]): below the threshold
pKd (GRIP1_3, Q9Y3R0; [1]): below the threshold
pKd (PICK1, Q9NRD5; [1]): below the threshold
pKd (PDZRN4_1, Q6ZMN7; [1]): below the threshold
pKd (NHERF4_1, Q86UT5-2; [1]): below the threshold
pKd (Inadl_1, Q8NI35; [1]): below the threshold
pKd (PDZD2_2, O15018; [1]): below the threshold
pKd (Inadl_5, Q8NI35; [1]): below the threshold
pKd (GRIP1_7, Q9Y3R0; [1]): 3.63
pKd (DLG3_2, Q92796; [1]): below the threshold
pKd (GRIP1_4, Q9Y3R0; [1]): below the threshold
pKd (APBA2_1, Q99767; [1]): below the threshold
pKd (DLG2_3, Q15700; [1]): below the threshold
pKd (LIN7B, Q9HAP6; [1]): below the threshold
pKd (AHNAK1, Q09666; [1]): below the threshold
pKd (MPP7, Q5T2T1; [1]): below the threshold
pKd (GORASP1, Q9BQQ3; [1]): below the threshold
pKd (DLG1_2, Q12959; [1]): below the threshold
pKd (SNTB1, Q13884; [1]): below the threshold
pKd (LNX1_3, Q8TBB1; [1]): below the threshold
pKd (SCRIB_3, Q14160; [1]): 4.82
pKd (Inadl_9, Q8NI35; [1]): below the threshold

TIVSWPGTFL [LNX1, Q8TBB1]
pKd (Inadl_10, Q8NI35; [2]): 4.25
pKd (DFNB31_1, Q9P202; [2]): below the threshold
pKd (DLG1_1, Q12959; [2]): below the threshold
pKd (PCLO, Q9Y6V0; [2]): below the threshold
pKd (HTRA3, P83110; [2]): 3.62
pKd (GRIP1_3, Q9Y3R0; [2]): below the threshold
pKd (PICK1, Q9NRD5; [2]): below the threshold
pKd (PDZRN4_1, Q6ZMN7; [2]): 4.16
pKd (NHERF4_1, Q86UT5-2; [2]): 3.47
pKd (Inadl_1, Q8NI35; [2]): below the threshold
pKd (PDZD2_2, O15018; [2]): 4.03
pKd (Inadl_5, Q8NI35; [2]): below the threshold
pKd (GRIP1_7, Q9Y3R0; [2]): below the threshold
pKd (DLG3_2, Q92796; [2]): below the threshold
pKd (GRIP1_4, Q9Y3R0; [2]): below the threshold
pKd (APBA2_1, Q99767; [2]): below the threshold
pKd (DLG2_3, Q15700; [2]): below the threshold
pKd (LIN7B, Q9HAP6; [2]): 3.48
pKd (AHNAK1, Q09666; [2]): below the threshold
pKd (MPP7, Q5T2T1; [2]): below the threshold
pKd (GORASP1, Q9BQQ3; [2]): below the threshold
pKd (DLG1_2, Q12959; [2]): below the threshold
pKd (SNTB1, Q13884; [2]): below the threshold
pKd (LNX1_3, Q8TBB1; [2]): below the threshold
pKd (SCRIB_3, Q14160; [2]): 4.29
pKd (Inadl_9, Q8NI35; [2]): below the threshold

SRRPRTETQV [HPV31-E6, P17386]
pKd (Inadl_10, Q8NI35; [1]): below the threshold
pKd (DFNB31_1, Q9P202; [1]): 3.55
pKd (DLG1_1, Q12959; [1]): 5.16
pKd (PCLO, Q9Y6V0; [1]): below the threshold
pKd (HTRA3, P83110; [1]): below the threshold
pKd (GRIP1_3, Q9Y3R0; [1]): below the threshold
pKd (PICK1, Q9NRD5; [1]): below the threshold
pKd (PDZRN4_1, Q6ZMN7; [1]): 4.19
pKd (NHERF4_1, Q86UT5-2; [1]): below the threshold
pKd (Inadl_1, Q8NI35; [1]): below the threshold
pKd (PDZD2_2, O15018; [1]): 3.7
pKd (Inadl_5, Q8NI35; [1]): below the threshold
pKd (GRIP1_7, Q9Y3R0; [1]): below the threshold
pKd (DLG3_2, Q92796; [1]): 5.41
pKd (GRIP1_4, Q9Y3R0; [1]): below the threshold
pKd (APBA2_1, Q99767; [1]): below the threshold
pKd (DLG2_3, Q15700; [1]): 5.1
pKd (LIN7B, Q9HAP6; [1]): 3.68
pKd (AHNAK1, Q09666; [1]): below the threshold
pKd (MPP7, Q5T2T1; [1]): below the threshold
pKd (GORASP1, Q9BQQ3; [1]): below the threshold
pKd (DLG1_2, Q12959; [1]): 5.79
pKd (SNTB1, Q13884; [1]): 4.15
pKd (LNX1_3, Q8TBB1; [1]): below the threshold
pKd (SCRIB_3, Q14160; [1]): 4.56
pKd (Inadl_9, Q8NI35; [1]): below the threshold

GIFPTLTSPL [SHROOM3, Q8TF72]
pKd (Inadl_10, Q8NI35; [2]): below the threshold
pKd (DFNB31_1, Q9P202; [2]): below the threshold
pKd (DLG1_1, Q12959; [2]): below the threshold
pKd (PCLO, Q9Y6V0; [2]): below the threshold
pKd (HTRA3, P83110; [2]): below the threshold
pKd (GRIP1_3, Q9Y3R0; [2]): below the threshold
pKd (PICK1, Q9NRD5; [2]): below the threshold
pKd (PDZRN4_1, Q6ZMN7; [2]): below the threshold
pKd (NHERF4_1, Q86UT5-2; [2]): 4.15
pKd (Inadl_1, Q8NI35; [2]): below the threshold
pKd (PDZD2_2, O15018; [2]): 3.48
pKd (Inadl_5, Q8NI35; [2]): below the threshold
pKd (GRIP1_7, Q9Y3R0; [2]): below the threshold
pKd (DLG3_2, Q92796; [2]): below the threshold
pKd (GRIP1_4, Q9Y3R0; [2]): below the threshold
pKd (APBA2_1, Q99767; [2]): below the threshold
pKd (DLG2_3, Q15700; [2]): below the threshold
pKd (LIN7B, Q9HAP6; [2]): below the threshold
pKd (AHNAK1, Q09666; [2]): below the threshold
pKd (MPP7, Q5T2T1; [2]): below the threshold
pKd (GORASP1, Q9BQQ3; [2]): below the threshold
pKd (DLG1_2, Q12959; [2]): below the threshold
pKd (SNTB1, Q13884; [2]): below the threshold
pKd (LNX1_3, Q8TBB1; [2]): below the threshold
pKd (SCRIB_3, Q14160; [2]): below the threshold
pKd (Inadl_9, Q8NI35; [2]): below the threshold

GKKSVKHSKI [ACOT6, Q3I5F7]
pKd (Inadl_10, Q8NI35; [3]): below the threshold
pKd (DFNB31_1, Q9P202; [3]): 4.33
pKd (DLG1_1, Q12959; [3]): below the threshold
pKd (PCLO, Q9Y6V0; [3]): below the threshold
pKd (HTRA3, P83110; [3]): below the threshold
pKd (GRIP1_3, Q9Y3R0; [3]): below the threshold
pKd (PICK1, Q9NRD5; [3]): 3.99
pKd (PDZRN4_1, Q6ZMN7; [3]): below the threshold
pKd (NHERF4_1, Q86UT5-2; [3]): below the threshold
pKd (Inadl_1, Q8NI35; [3]): below the threshold
pKd (PDZD2_2, O15018; [3]): 4.03
pKd (Inadl_5, Q8NI35; [3]): below the threshold
pKd (GRIP1_7, Q9Y3R0; [3]): below the threshold
pKd (DLG3_2, Q92796; [3]): below the threshold
pKd (GRIP1_4, Q9Y3R0; [3]): below the threshold
pKd (APBA2_1, Q99767; [3]): below the threshold
pKd (DLG2_3, Q15700; [3]): 3.65
pKd (LIN7B, Q9HAP6; [3]): below the threshold
pKd (AHNAK1, Q09666; [3]): below the threshold
pKd (MPP7, Q5T2T1; [3]): below the threshold
pKd (GORASP1, Q9BQQ3; [3]): below the threshold
pKd (DLG1_2, Q12959; [3]): 3.97
pKd (SNTB1, Q13884; [3]): 3.92
pKd (LNX1_3, Q8TBB1; [3]): below the threshold
pKd (SCRIB_3, Q14160; [3]): below the threshold
pKd (Inadl_9, Q8NI35; [3]): below the threshold
